The source of these data is patent US12060433B2, “CD73 inhibitor and A2A/A2B adenosine receptor inhibitor combination therapy” (Incyte Corporation, priority 2020, dated 2024).

For assay [1], the system named is cynomolgus CD73 (SEQ ID NO: 72). Description: SPR (Biacore 8K) binding affinity and kinetics to cynomolgus CD73. On the procedure:
The SPR running buffer (10 mM HEPES, 150 mM NaCl, 3 mM EDTA and 0.05% v/v Surfactant P20, pH 7.4) was prepared from 10×HBS-EP Buffer (GE Healthcare). Anti-human Fc antibodies (GE Healthcare) were immobilized via amine coupling on all sixteen flow cells of an S series sensor chip CM5 (GE Healthcare). The immobilization levels were ˜9000 RU for all flow cells. The desired capturing level of anti-CD73 antibody was achieved by flowing appropriate concentration of anti-CD73 antibody through the active flow cell of each channel. The non-cleavable ADP analogue APCP (adenosine-5′-(α,β-methylene) diphosphate) with the presence of Zn^2+ can be used to shift the CD73 conformational equilibrium from open towards closed. Therefore, recombinant CD73 was incubated with SPR running buffer in the presence of 100 μM APCP and 10 μM ZnCl2 (closed SPR running buffer) to study the binding of anti-CD73 antibody to the CD73 in the closed conformation. To achieve this, the ABA injection feature in Biacore 8K was used. For open conformation, the ABA injection sequence started with 60 seconds injection of running buffer. Then, CD73 3-fold serial dilution concentration series prepared from CD73 stock (BPS Bioscience) and running buffer were injected for 180 seconds immediately followed by running buffer for 240 seconds. For closed conformation, the normal SPR running buffer was replaced by closed SPR running buffer. Surface was regenerated with 30 seconds injection of 3 M MgCl2. […] Binding affinities and kinetic association and dissociation rate constants to human, cynomolgus, and mouse CD73 in either open or closed conformations are shown in Table 8 below. The results in Table 8 ensure cynomolgus pharmacokinetic data will reflect human pharmacokinetic data.
Binding affinities and kinetic association and dissociation rate constants to human, cynomolgus, and mouse CD73 in either open or closed conformations are shown in Table 9 below.
On the technique in general: Surface plasmon resonance follows binding to a sensor surface in real time, without labels.

For assay [2], the target named is T1, cell surface CD73 on A375 cells (Homo sapiens, UniProt P21589).
T1 construct: endogenous in cells; host or cells: A375
T1 sequence (P21589 27-549): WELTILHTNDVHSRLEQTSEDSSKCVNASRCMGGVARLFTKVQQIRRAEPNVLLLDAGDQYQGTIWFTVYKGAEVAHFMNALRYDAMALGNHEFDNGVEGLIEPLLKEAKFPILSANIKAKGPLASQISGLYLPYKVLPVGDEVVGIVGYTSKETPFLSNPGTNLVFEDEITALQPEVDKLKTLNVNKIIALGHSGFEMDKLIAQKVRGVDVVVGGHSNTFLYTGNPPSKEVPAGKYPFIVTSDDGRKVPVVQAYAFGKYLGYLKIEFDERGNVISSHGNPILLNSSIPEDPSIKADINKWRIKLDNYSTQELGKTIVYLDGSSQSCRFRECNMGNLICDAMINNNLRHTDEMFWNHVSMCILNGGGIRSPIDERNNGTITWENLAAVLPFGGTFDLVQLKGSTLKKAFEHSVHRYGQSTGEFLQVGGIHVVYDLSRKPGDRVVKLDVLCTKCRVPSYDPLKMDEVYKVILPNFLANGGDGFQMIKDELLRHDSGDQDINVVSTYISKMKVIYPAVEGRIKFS
Description: Binding to cell surface CD73 by flow cytometry (GMFI), A375 cells. It counts as cell-based. Conditions: moderate levels of surface CD73. How it is done: To test the binding of humanized and non-humanized CL25 clones to cell surface CD73, MDA-MB-231 or A375 cells were washed and added to 96-well plates at 5×10^4 cells/well. The cells were stained with the indicated concentration of antibodies for 30 minutes on ice (FIG. 2A and FIG. 2B). Next, the cells were washed and stained using goat anti-mouse secondary conjugated to phycoerythrin (PE) for 30 minutes on ice. The cells were then washed and analyzed by flow cytometry. Geometric mean fluorescence intensity (GMFI) of CD73 staining was graphed (FIG. 2A and FIG. 2B).
A general note: A flow cytometer gives signals particle by particle.

In assay [3] the target is T2, cellular CD73 on A375 cells (Homo sapiens, UniProt P21589).
T2 construct: endogenous in cells; host or cells: A375
T2 sequence (P21589 27-549): T1 sequence (P21589 27-549)
The experiment in a line: Cellular CD73 inhibition (AMP-Glo), A375 cells. It counts as cell-based. Conditions: 100 μM AMP, 3 hours. On the procedure: To measure ability of anti-CD73 antibody to inhibit CD73 activity on cells, A375 and MDA-MB-231 cells were washed with serum free RPMI media (ThermoFisher) and plated in 96-well plates at a concentration of 8×10^4 cells/well for A375 or 1×10^4 cells/well for MDA-MB-231. The cells were incubated with the indicated concentration of antibodies or APCP at 37° C. 5% C02 for 30 minutes (FIG. 3A, FIG. 3B, and FIG. 3C). Next, adenosine monophosphate (AMP) was added to a final concentration of 100 μM and cells were incubated an additional 3 hours at 37° C. 5% CO2. Plates were centrifuged for 1-2 minutes at 300 g and 25 μL of supernatant was transferred into a new 96-well plates. AMP-Glo Assay was used according to the manufacturer's instructions (Promega). Relative luminescence unit (RLU) is directly correlated with the AMP concentration in this assay. Results are depicted in FIG. 3A, FIG. 3B, and FIG. 3C. The ability of 3-[…] to inhibit CD73 activity on cells was evaluated as described in Example 3, above. Results are depicted in FIG. 8A and FIG. 8B.

Assay [4] addresses T3, cellular CD73 on MDA-MB-231 cells (Homo sapiens, UniProt P21589).
T3 construct: endogenous in cells; host or cells: MDA-MB-231
T3 sequence (P21589 27-549): T1 sequence (P21589 27-549)
The experiment in a line: Cellular CD73 inhibition (AMP-Glo), MDA-MB-231 cells. Conditions: 100 μM AMP, 3 hours. It counts as cell-based. On the procedure:
To measure ability of anti-CD73 antibody to inhibit CD73 activity on cells, A375 and MDA-MB-231 cells were washed with serum free RPMI media (ThermoFisher) and plated in 96-well plates at a concentration of 8×10^4 cells/well for A375 or 1×10^4 cells/well for MDA-MB-231. The cells were incubated with the indicated concentration of antibodies or APCP at 37° C. 5% C02 for 30 minutes (FIG. 3A, FIG. 3B, and FIG. 3C). Next, adenosine monophosphate (AMP) was added to a final concentration of 100 μM and cells were incubated an additional 3 hours at 37° C. 5% CO2. Plates were centrifuged for 1-2 minutes at 300 g and 25 μL of supernatant was transferred into a new 96-well plates. AMP-Glo Assay was used according to the manufacturer's instructions (Promega). Relative luminescence unit (RLU) is directly correlated with the AMP concentration in this assay. Results are depicted in FIG. 3A, FIG. 3B, and FIG. 3C. […] Results are depicted in FIG. 8A and FIG. 8B. […] Cells were incubated with the indicated concentration of antibodies or APCP at 37° C. 5% CO2 for 30 minutes. Next, AMP was added to a final concentration of 100 μM and cells were incubated an additional 3 hours at 37° C. 5% CO2. Plates were centrifuged for 1-2 minutes at 300 g and 25 μL of supernatant was transferred into a new 96-well plates. AMP-Glo Assay was used according to the manufacturer's instructions. […]

Setting [5] is: cynomolgus CD73, closed conformation.

cynomolgus CD73 (SEQ ID NO: 72), sequence (as listed by the source): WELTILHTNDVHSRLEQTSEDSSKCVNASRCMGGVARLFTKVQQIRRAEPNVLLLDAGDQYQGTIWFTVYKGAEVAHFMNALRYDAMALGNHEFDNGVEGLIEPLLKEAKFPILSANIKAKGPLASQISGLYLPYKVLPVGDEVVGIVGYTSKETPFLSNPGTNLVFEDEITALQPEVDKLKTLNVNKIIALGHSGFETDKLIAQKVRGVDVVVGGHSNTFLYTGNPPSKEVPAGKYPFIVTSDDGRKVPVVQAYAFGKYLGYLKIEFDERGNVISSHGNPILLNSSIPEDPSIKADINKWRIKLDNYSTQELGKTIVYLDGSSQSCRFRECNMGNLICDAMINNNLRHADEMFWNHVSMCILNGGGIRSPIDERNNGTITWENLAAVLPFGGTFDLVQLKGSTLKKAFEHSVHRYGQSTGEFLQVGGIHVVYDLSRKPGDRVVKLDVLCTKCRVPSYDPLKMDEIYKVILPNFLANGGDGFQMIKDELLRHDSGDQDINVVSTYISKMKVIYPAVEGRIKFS

B1: CL25: chimeric anti-human CD73 monoclonal antibody, murine VH SEQ ID NO:26 and VL SEQ ID NO:27 with human IgG1 Fc (antibody, V domains shown)
VH: QVQLQQSGAELARPGASVKLSCRASGYTFTSYGLSWVKQRTGQGLEWIGEIYPGSGNTYYNEKFKGKATLTADKSSSTAYMELRSLTSEDSAVYFCARYDYLGSSYGFDYWGQGTTLTVSS
VL: DIVMTQSHKFMSTSVGDRVSITCKASQDVSTAVAWYQQKPGQSPKLLIYSASYRYNGVPDRFTGSGSGTDFTFTISSVQAEDLAVYYCQQHYNTPYTFGGGTKLEIK
modifications: human IgG1 Fc constant regions without entry
B1: the ka in assay [1] (setting [5]) was determined as 936000 M⁻¹ s⁻¹. Also, the kd in assay [1] (setting [5]) was found to be 0.000495 s⁻¹; in assay [1] (cynomolgus CD73, open conformation) it was 0.000658 s⁻¹. The “cell binding (GMFI)” value in assay [2] was “high potency binding”. The “cellular CD73 inhibition” value in assay [3] and in assay [4] was “good potency” each time.
